T1: VEGFR-3-Fc (UniProt P35916 25-328)
T1 construct: domain: first three Ig domains; conditioned supernatant of 293T cells; also called VEGFR-3-Fc fusion protein; not shown: Fc fragment of the pIg vector
T1 sequence (looked up): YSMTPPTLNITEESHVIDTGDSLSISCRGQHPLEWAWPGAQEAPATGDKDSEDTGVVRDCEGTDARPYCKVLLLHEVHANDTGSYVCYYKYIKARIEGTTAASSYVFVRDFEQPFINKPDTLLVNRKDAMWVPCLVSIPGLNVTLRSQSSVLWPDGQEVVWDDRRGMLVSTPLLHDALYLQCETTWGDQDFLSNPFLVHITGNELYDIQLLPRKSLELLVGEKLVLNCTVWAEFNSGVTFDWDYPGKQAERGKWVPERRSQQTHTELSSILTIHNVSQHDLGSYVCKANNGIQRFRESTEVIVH


Tests used:
Assay in all cases: receptor-Fc IP
VEGFR-1-Fc = molecular target: T2, VEGFR-1-Fc (UniProt P17948 27-338)
T2 construct: domain: first three Ig domains; expressed in Drosophila S2 cells, purified on Protein A sepharose; also called VEGFR-1-Fc fusion protein; not shown: Fc fragment from the Signal-pIgPlus vector
Summary of the method: (§1)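 fusion protein at 400 ng/ml in an IP mix (PBS, 1.5% BSA, 0.06% Tween 20, 3 μg/ml heparin) was combined with sample supernatant at a 1:2 ratio. Bound ligand captured by immunoprecipitation with pentahistidine antibody.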

VEGFR-3-Fc = molecular target: T1, VEGFR-3-Fc
Summary of the method: as §1

VEGFR-2-Fc = molecular target: T3, VEGFR-2-Fc (UniProt P35968 20-322)
T3 construct: domain: first 3 Ig domains; conditioned supernatant of 293T cells; also called VEGFR-2-Fc fusion protein; not shown: Fc fragment of the pIg vector
Summary of the method: as §1

T2 sequence (P17948 27-338): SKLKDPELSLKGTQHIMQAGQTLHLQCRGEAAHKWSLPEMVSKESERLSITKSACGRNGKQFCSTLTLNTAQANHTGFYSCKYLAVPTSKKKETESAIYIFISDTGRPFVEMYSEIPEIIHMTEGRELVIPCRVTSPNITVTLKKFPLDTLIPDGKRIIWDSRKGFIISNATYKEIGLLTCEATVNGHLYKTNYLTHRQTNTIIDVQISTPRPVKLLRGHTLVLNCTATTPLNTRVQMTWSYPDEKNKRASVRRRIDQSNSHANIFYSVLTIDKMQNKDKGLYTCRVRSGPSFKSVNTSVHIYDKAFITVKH
T3 sequence (P35968 20-322): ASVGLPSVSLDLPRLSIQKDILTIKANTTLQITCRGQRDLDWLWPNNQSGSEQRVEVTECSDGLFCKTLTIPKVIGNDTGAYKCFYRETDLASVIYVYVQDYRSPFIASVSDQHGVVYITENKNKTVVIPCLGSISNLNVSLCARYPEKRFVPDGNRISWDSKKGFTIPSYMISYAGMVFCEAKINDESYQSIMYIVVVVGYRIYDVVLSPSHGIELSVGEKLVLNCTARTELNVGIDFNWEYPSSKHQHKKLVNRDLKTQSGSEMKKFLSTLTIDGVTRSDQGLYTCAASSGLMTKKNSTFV

binding result (VEGFR-1-Fc) | binding result (VEGFR-3-Fc) | binding result (VEGFR-2-Fc) | Binder
no binding | no binding | no binding | 73-5 (ligand) GQNHHEVVKSIDNEWRKTQCMPREVCIDVGKEYPDEIEYIFKPPCVSVYRCGGCCNDEGLECVPTEESNITMQIMRIKPHQGQHIGEMSFANHTSCRCMSKLD
no binding | no binding | no binding | 82-1 (ligand) AHYNTEILKFMDVYQRSYCHPIETLVDIFQEFGVATNTFFKPPCVSVYRCGGCCNDEGLECVPTEESNITMQIMRIKPHQGQHIGEMSFLQHNKCECRPKKD
no binding | no binding | no binding | 74-15 (ligand) GQNHHEVVKSIDNEWRKTQCMPREVCIDVGKEFGVATNTFFKPSCVPLMRCGGCCNSEGLQCVPTEESNITMQIMRITVPLSQGPKPVTISFANHTSCRCMSKLD
no binding | no binding | no binding | 63-10 (ligand) GQNHHEVVKFMDVYQRSYCHPREVCIDVGKEYPDEIEYIFKPPCVSVYRCGGCCNDEGLECMNTSTSYLSKTLFEITVPLSQGPKPVTISFLQHNKCECRPKKD
no binding | no binding | no binding | 74-16 (ligand) GQNHHEVVKSIDNEWRKTQCMPREVCIDVGKEFGVATNTFFKPSCVPLMRCGGCCNSEGLQCMNTSTSYLSKTLFEITVPLSQGPKPVTISFANHTSCRCMSKLD
no binding | no binding | no binding | 71-2 (ligand) GQNHHEVVKSIDNEWRKTQCMPREVCIDVGKEYPDEIEYIFKPSCVPLMRCGGCCNDEGLECMNTSTSYLSKTLFEIKPHQGQHIGEMSFLQHNKCECRPKKD
no binding | no binding | no binding | 71-8 (ligand) GQNHHEVVKSIDNEWRKTQCMPREVCIDVGKEYPDEIEYIFKPSCVPLMRCGGCCNSEGLQCMNTSTSYLSKTLFEIKPHQGQHIGEMSFANHTSCRCMSKLD
no binding | no binding | no binding | 74-2 (ligand) GQNHHEVVKSIDNEWRKTQCMPREVCIDVGKEFGVATNTFFKPSCVPLMRCGGCCNDEGLECMNTSTSYLSKTLFEIKPHQGQHIGEMSFLQHNKCECRPKKD
no binding | no binding | no binding | 73-2 (ligand) GQNHHEVVKSIDNEWRKTQCMPREVCIDVGKEYPDEIEYIFKPPCVSVYRCGGCCNDEGLECMNTSTSYLSKTLFEIKPHQGQHIGEMSFLQHNKCECRPKKD
no binding | no binding | no binding | 71-4 (ligand) GQNHHEVVKSIDNEWRKTQCMPREVCIDVGKEYPDEIEYIFKPSCVPLMRCGGCCNSEGLQCMNTSTSYLSKTLFEIKPHQGQHIGEMSFLQHNKCECRPKKD
no binding | no binding | no binding | 74-4 (ligand) GQNHHEVVKSIDNEWRKTQCMPREVCIDVGKEFGVATNTFFKPSCVPLMRCGGCCNSEGLQCMNTSTSYLSKTLFEIKPHQGQHIGEMSFLQHNKCECRPKKD
no binding | no binding | no binding | 71-1 (ligand) GQNHHEVVKSIDNEWRKTQCMPREVCIDVGKEYPDEIEYIFKPSCVPLMRCGGCCNDEGLECVPTEESNITMQIMRIKPHQGQHIGEMSFLQHNKCECRPKKD
no binding | no binding | no binding | 71-7 (ligand) GQNHHEVVKSIDNEWRKTQCMPREVCIDVGKEYPDEIEYIFKPSCVPLMRCGGCCNSEGLQCVPTEESNITMQIMRIKPHQGQHIGEMSFANHTSCRCMSKLD
no binding | no binding | no binding | 73-1 (ligand) GQNHHEVVKSIDNEWRKTQCMPREVCIDVGKEYPDEIEYIFKPPCVSVYRCGGCCNDEGLECVPTEESNITMQIMRIKPHQGQHIGEMSFLQHNKCECRPKKD
no binding | no binding | no binding | 74-3 (ligand) GQNHHEVVKSIDNEWRKTQCMPREVCIDVGKEFGVATNTFFKPSCVPLMRCGGCCNSEGLQCVPTEESNITMQIMRIKPHQGQHIGEMSFLQHNKCECRPKKD
no binding | no binding | no binding | 71-3 (ligand) GQNHHEVVKSIDNEWRKTQCMPREVCIDVGKEYPDEIEYIFKPSCVPLMRCGGCCNSEGLQCVPTEESNITMQIMRIKPHQGQHIGEMSFLQHNKCECRPKKD
no binding | no binding | no binding | 74-1 (ligand) GQNHHEVVKSIDNEWRKTQCMPREVCIDVGKEFGVATNTFFKPSCVPLMRCGGCCNDEGLECVPTEESNITMQIMRIKPHQGQHIGEMSFLQHNKCECRPKKD
no binding | no binding | no binding | 73-3 (ligand) GQNHHEVVKSIDNEWRKTQCMPREVCIDVGKEYPDEIEYIFKPPCVSVYRCGGCCNSEGLQCVPTEESNITMQIMRIKPHQGQHIGEMSFLQHNKCECRPKKD
no binding | no binding | no binding | 71-5 (ligand) GQNHHEVVKSIDNEWRKTQCMPREVCIDVGKEYPDEIEYIFKPSCVPLMRCGGCCNDEGLECVPTEESNITMQIMRIKPHQGQHIGEMSFANHTSCRCMSKLD
no binding | no binding | no binding | 71-10 (ligand) GQNHHEVVKSIDNEWRKTQCMPREVCIDVGKEYPDEIEYIFKPSCVPLMRCGGCCNDEGLECMNTSTSYLSKTLFEITVPLSQGPKPVTISFLQHNKCECRPKKD
no binding | no binding | no binding | 71-16 (ligand) GQNHHEVVKSIDNEWRKTQCMPREVCIDVGKEYPDEIEYIFKPSCVPLMRCGGCCNSEGLQCMNTSTSYLSKTLFEITVPLSQGPKPVTISFANHTSCRCMSKLD
no binding | no binding | no binding | 73-10 (ligand) GQNHHEVVKSIDNEWRKTQCMPREVCIDVGKEYPDEIEYIFKPPCVSVYRCGGCCNDEGLECMNTSTSYLSKTLFEITVPLSQGPKPVTISFLQHNKCECRPKKD
no binding | no binding | no binding | 71-12 (ligand) GQNHHEVVKSIDNEWRKTQCMPREVCIDVGKEYPDEIEYIFKPSCVPLMRCGGCCNSEGLQCMNTSTSYLSKTLFEITVPLSQGPKPVTISFLQHNKCECRPKKD
no binding | no binding | no binding | 73-12 (ligand) GQNHHEVVKSIDNEWRKTQCMPREVCIDVGKEYPDEIEYIFKPPCVSVYRCGGCCNSEGLQCMNTSTSYLSKTLFEITVPLSQGPKPVTISFLQHNKCECRPKKD
no binding | no binding | no binding | 74-6 (ligand) GQNHHEVVKSIDNEWRKTQCMPREVCIDVGKEFGVATNTFFKPSCVPLMRCGGCCNDEGLECMNTSTSYLSKTLFEIKPHQGQHIGEMSFANHTSCRCMSKLD
